Source: patent publication US20210230287A1

How the values were obtained:
[1] = target: cynomolgus 4-1BB extracellular domain, His tag (cynomolgus) (UniProt A9YYE7); assay: SPR, Biacore T200; antibody captured on Protein G chip, cynomolgus 4-1BB ECD.His as analyte
[2] = target: human 4-1BB, full-length, on cells (human) (UniProt Q07011); assay: flow cytometry on human 4-1BB-expressing CHO-K1 cells, PE goat anti-human IgG Fc, MFI
Chain of human 4-1BB, full-length, on cells (human) (Q07011 24-255 limits assumed): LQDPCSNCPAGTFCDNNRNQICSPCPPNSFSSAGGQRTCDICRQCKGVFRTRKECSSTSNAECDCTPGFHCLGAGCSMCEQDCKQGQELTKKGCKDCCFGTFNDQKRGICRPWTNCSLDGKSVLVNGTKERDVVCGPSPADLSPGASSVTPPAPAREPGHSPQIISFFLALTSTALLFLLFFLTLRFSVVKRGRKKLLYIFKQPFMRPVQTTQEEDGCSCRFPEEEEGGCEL

Chain of cynomolgus 4-1BB extracellular domain, His tag (cynomolgus) (A9YYE7 entry or part of it): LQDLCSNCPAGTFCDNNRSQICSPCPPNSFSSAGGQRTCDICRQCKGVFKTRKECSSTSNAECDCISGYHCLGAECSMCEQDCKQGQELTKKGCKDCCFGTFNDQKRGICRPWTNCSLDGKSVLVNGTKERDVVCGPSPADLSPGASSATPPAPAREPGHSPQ
Chain of BMK4.hIgG2L(Pfizer) (antibody) (VH): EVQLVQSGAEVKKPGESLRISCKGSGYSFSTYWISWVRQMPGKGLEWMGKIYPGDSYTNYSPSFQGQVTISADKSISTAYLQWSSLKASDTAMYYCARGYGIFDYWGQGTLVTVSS
Chain of BMK4.hIgG2L(Pfizer) (antibody) (VL): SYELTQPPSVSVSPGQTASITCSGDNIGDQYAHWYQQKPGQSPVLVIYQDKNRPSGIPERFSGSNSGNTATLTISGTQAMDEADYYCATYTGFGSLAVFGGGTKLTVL

BMK4.hIgG2L(Pfizer) (antibody)
Kd [1]: 16 nM

WBP342-BMK3.hIgG4 (antibody)
EC50 (read off the curve) [2]: 0.2 nM
